Earlier results on 1 substance are cited in PMC11924945.

The target in this data set is CD47 (Homo sapiens) (UniProt Q08722).

pKd: −log10 of the molar value.

Chain of SIRPα allele 2 (P78324 31-373): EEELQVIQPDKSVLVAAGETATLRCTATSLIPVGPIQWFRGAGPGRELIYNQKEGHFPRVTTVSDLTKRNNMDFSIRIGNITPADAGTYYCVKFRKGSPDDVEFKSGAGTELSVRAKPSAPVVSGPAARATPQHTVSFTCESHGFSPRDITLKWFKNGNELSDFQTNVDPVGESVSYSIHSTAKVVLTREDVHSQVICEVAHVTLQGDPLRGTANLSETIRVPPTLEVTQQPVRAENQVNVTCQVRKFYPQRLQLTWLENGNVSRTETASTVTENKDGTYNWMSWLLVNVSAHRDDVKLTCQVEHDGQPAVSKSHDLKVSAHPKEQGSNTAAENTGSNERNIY
Chain of CD47 (Homo sapiens) (Q08722 19-323): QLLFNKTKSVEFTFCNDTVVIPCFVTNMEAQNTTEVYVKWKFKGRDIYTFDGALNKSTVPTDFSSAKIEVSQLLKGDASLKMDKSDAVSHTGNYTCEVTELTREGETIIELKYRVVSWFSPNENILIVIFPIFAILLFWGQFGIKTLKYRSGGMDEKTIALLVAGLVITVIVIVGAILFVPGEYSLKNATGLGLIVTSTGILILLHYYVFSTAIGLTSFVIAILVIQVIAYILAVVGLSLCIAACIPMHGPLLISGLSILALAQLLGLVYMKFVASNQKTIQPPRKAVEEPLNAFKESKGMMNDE

Consider SIRPα allele 2 (from UniProt P78324), for which the pKd (in general, −log10 of the Kd, conventionally taken in molar units) is 6.00.
